Target: the molecule itself
Test: crystal structure

Protein | stoichiometry N
ketosteroid isomerase (KSI) Y57F/D40N (enzyme, Pseudomonas putida) LPTAQEVQGLMARYIELVDVGDIEAIVQMYADDATVENPFGQPPIHGREQIAAFFRQGLGGGKVRACLTGPVRASHNGCGAMPFRVEMVWNGQPCALDVIDVMRFDEHGRIQTMQAYWSEVNLSVREPQ | 2
ketosteroid isomerase (KSI) Y32F/Y57F (enzyme, Pseudomonas putida) MNLPTAQEVQGLMARYIELVDVGDIEAIVQMFADDATVEDPFGQPPIHGREQIAAFFRQGLGGGKVRACLTGPVRASHNGCGAMPFRVEMVWNGQPCALDVIDVMRFDEHGRIQTMQAYWSEVNLSVREPQ | 2
ketosteroid isomerase (KSI) Y57F (enzyme, Pseudomonas putida) MNLPTAQEVQGLMARYIELVDVGDIEAIVQMYADDATVEDPFGQPPIHGREQIAAFFRQGLGGGKVRACLTGPVRASHNGCGAMPFRVEMVWNGQPCALDVIDVMRFDEHGRIQTMQAYWSEVNLSVREPQ | 2

From article doi:10.1101/2021.09.29.461692 (bioRxiv, 2021)
